Values quoted from earlier work as cited in publication PMC9315744.

Assays:
Experiment in all cases: MST
[1] = target: MHV spike glycoprotein ECD (Murine hepatitis virus) (UniProt P11224)
Nsp8 (SARS-CoV-2) = Nsp8 (SARS-CoV-2) (UniProt P0DTD1)
[2] = target: Nsp7/Nsp8 complex (SARS-CoV-2) (UniProt P0DTD1)

CEACAM1a, sequence (P31809 35-428): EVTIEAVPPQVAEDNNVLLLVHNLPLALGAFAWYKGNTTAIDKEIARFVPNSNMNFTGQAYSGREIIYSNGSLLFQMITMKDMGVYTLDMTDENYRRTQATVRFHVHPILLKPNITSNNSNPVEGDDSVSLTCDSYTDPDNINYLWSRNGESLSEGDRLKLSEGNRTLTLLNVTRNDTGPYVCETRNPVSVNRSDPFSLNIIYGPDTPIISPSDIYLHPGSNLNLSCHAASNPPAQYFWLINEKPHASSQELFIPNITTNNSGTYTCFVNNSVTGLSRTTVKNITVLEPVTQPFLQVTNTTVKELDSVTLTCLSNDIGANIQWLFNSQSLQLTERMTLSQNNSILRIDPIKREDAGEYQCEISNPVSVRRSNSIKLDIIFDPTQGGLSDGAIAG
MHV spike glycoprotein ECD (Murine hepatitis virus), sequence (P11224 15-1231): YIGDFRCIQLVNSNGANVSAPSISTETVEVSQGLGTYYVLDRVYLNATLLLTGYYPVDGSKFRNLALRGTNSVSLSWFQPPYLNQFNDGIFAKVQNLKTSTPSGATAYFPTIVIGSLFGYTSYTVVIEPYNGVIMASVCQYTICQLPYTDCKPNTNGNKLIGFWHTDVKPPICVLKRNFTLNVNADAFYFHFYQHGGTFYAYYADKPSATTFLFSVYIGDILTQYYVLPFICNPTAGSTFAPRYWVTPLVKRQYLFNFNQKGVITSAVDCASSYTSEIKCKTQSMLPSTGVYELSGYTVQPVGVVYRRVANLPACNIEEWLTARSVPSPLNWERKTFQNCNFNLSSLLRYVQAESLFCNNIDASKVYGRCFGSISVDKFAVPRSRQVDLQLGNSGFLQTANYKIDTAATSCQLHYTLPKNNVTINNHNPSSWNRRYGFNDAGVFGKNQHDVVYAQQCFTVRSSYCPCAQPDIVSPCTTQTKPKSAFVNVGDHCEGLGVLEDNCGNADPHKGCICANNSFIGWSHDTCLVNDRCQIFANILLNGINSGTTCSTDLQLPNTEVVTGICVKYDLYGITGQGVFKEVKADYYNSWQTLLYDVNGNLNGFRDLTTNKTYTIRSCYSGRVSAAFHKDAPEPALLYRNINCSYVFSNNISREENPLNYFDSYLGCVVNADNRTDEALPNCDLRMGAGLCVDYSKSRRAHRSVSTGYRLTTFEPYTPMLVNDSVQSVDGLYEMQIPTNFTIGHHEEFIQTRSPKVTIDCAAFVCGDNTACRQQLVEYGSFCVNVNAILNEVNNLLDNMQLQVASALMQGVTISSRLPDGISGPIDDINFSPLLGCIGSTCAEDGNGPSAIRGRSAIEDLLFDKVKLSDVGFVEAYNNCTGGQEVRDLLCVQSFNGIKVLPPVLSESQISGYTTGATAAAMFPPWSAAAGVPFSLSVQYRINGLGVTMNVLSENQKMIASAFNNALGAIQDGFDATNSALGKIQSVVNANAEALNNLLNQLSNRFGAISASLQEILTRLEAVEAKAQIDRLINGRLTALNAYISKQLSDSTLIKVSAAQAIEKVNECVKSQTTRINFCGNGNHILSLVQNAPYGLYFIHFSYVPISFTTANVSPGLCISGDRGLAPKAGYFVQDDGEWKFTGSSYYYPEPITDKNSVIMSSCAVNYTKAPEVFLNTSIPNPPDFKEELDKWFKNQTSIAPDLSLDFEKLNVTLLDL

Substance | Kd [1] | Kd (Nsp8 (SARS-CoV-2)) | Kd [2]
CEACAM1a (from UniProt P31809) | 0.0485 µM | – | –
Nsp15 (from UniProt P0DTD1) | – | 16.3 µM | 6.48 µM
